Source: patent US20230407373A1 (priority 2020, published 2023)
Read-outs that look alike come from different tables or passages of the source.

B1: TUBB (protein, UniProt P07437 1-444, looked up)
Tubulin beta chain: MREIVHIQAGQCGNQIGAKFWEVISDEHGIDPTGTYHGDSDLQLDRISVYYNEATGGKYVPRAILVDLEPGTMDSVRSGPFGQIFRPDNFVFGQSGAGNNWAKGHYTEGAELVDSVLDVVRKEAESCDCLQGFQLTHSLGGGTGSGMGTLLISKIREEYPDRIMNTFSVVPSPKVSDTVVEPYNATLSVHQLVENTDETYCIDNEALYDICFRTLKLTTPTYGDLNHLVSATMSGVTTCLRFPGQLNADLRKLAVNMVPFPRLHFFMPGFAPLTSRGSQQYRALTVPELTQQVFDAKNMMAACDPRHGRYLTVAAVFRGRMSMKEVDEQMLNVQNKNSSYFVEWIPNNVKTAVCDIPPRGLKMAVTFIGNSTAIQELFKRISEQFTAMFRRKAFLHWYTGEGMDEMEFTEAESNMNDLVSEYQQYQDATAEEEEDFGEEAEEEA
B2: NOP56 (protein, UniProt O00567 1-594, looked up)
Nucleolar protein 56: MVLLHVLFEHAVGYALLALKEVEEISLLQPQVEESVLNLGKFHSIVRLVAFCPFASSQVALENANAVSEGVVHEDLRLLLETHLPSKKKKVLLGVGDPKIGAAIQEELGYNCQTGGVIAEILRGVRLHFHNLVKGLTDLSACKAQLGLGHSYSRAKVKFNVNRVDNMIIQSISLLDQLDKDINTFSMRVREWYGYHFPELVKIINDNATYCRLAQFIGNRRELNEDKLEKLEELTMDGAKAKAILDASRSSMGMDISAIDLINIESFSSRVVSLSEYRQSLHTYLRSKMSQVAPSLSALIGEAVGARLIAHAGSLTNLAKYPASTVQILGAEKALFRALKTRGNTPKYGLIFHSTFIGRAAAKNKGRISRYLANKCSIASRIDCFSEVPTSVFGEKLREQVEERLSFYETGEIPRKNLDVMKEAMVQAEEAAAEITRKLEKQEKKRLKKEKKRLAALALASSENSSSTPEECEEMSEKPKKKKKQKPQEVPQENGMEDPSISFSKPKKKKSFSKEELMSSDLEETAGSTSIPKRKKSTPKEETVNDPEEAGHRSGSKKKRKFSKEEPVSSGPEEAVGKSSSKKKKKFHKASQED
B3: NFXL1 (protein, UniProt Q6ZNB6 1-911, looked up)
NF-X1-type zinc finger …: MEASWRQVAGGRGRSRGRATAAPSGNGVHLRGAGGGREKGSVGAVPSGTSPGGVATTAAAGSRHSPAGSQALQTTAASELMSQKKFEEIKKANQAAARKLVEEQFSSSSEEGDEDFEGKQGKILANTFITYTTQTDGDTRELERTKQYVNEAFQAGAMTCLICIASVKRNQAVWSCSGCFCIFHMPCIQKWAKDSQFLVSSVTDDDFGKKDCPWPCPKCRFEYKRSETPSRYYCYCGKVEDPPLDPWLVPHSCGQVCEREFKPPCGHKCLLLCHPGPCPPCPKMVTTTCYCKKAKPIPRRCSAKEWSCQLPCGQKLLCGQHKCENPCHAGSCQPCPRVSRQKCVCGKKVAERSCASPLWHCDQVCGKTLPCGNHTCEQVCHVGACGECPRSGKRFCPCQKSKFSLPCTEDVPTCGDSCDKVLECGIHRCSQRCHRGPCETCRQEVEKHCRCGKHTKRMPCHKPYLCETKCVKMRDCQKHQCRRKCCPGNCPPCDQNCGRTLGCRNHKCPSVCHRGSCYPCPETVDVKCNCGNTKVTVPCGRERTTRPPKCKEQCSRPPTCHHTSQEKHRCHFGSCPPCHQPCQKVLEKCGHLCPAPCHDQALIKQTGRHQPTGPWEQPSEPAFIQTALPCPPCQVPIPMECLGKHEVSPLPCHAVGPYSCKRVCGRILDCQNHTCMKECHKVTKTDGCTGKNKAGPECLHCEEGCSKSRPLGCLHPCILRCHPGECPPCVQMLRIKCHCKITSLYVECRKITTADVNEKNLLSCCKNQCPKELPCGHRCKEMCHPGECPFNCNQKVKLRCPCKRIKKELQCNKVRENQVSIECDTTCKEMKRKASEIKEAEAKAALEEEKRRQQAELEAFENRLKGRRKKNRKRDEVAVELSLWQKHKYYLISVCGVVVVVFAWYITHDVN
B4: NOP58 (protein, UniProt Q9Y2X3 1-529, looked up)
Nucleolar protein 58: MLVLFETSVGYAIFKVLNEKKLQEVDSLWKEFETPEKANKIVKLKHFEKFQDTAEALAAFTALMEGKINKQLKKVLKKIVKEAHEPLAVADAKLGGVIKEKLNLSCIHSPVVNELMRGIRSQMDGLIPGVEPREMAAMCLGLAHSLSRYRLKFSADKVDTMIVQAISLLDDLDKELNNYIMRCREWYGWHFPELGKIISDNLTYCKCLQKVGDRKNYASAKLSELLPEEVEAEVKAAAEISMGTEVSEEDICNILHLCTQVIEISEYRTQLYEYLQNRMMAIAPNVTVMVGELVGARLIAHAGSLLNLAKHAASTVQILGAEKALFRALKSRRDTPKYGLIYHASLVGQTSPKHKGKISRMLAAKTVLAIRYDAFGEDSSSAMGVENRAKLEARLRTLEDRGIRKISGTGKALAKTEKYEHKSEVKTYDPSGDSTLPTCSKKRKIEQVDKEDEITEKKAKKAKIKVKVEEEEEEKVAEEEETSVKKKKKRGKKKHIKEEPLSEEEPCTSTAIASPEKKKKKKKKRENED
B5: DHX15 (protein, UniProt O43143 1-795, looked up)
ATP-dependent RNA helicase …: MSKRHRLDLGEDYPSGKKRAGTDGKDRDRDRDREDRSKDRDRERDRGDREREREKEKEKELRASTNAMLISAGLPPLKASHSAHSTHSAHSTHSTHSAHSTHAGHAGHTSLPQCINPFTNLPHTPRYYDILKKRLQLPVWEYKDRFTDILVRHQSFVLVGETGSGKTTQIPQWCVEYMRSLPGPKRGVACTQPRRVAAMSVAQRVADEMDVMLGQEVGYSIRFEDCSSAKTILKYMTDGMLLREAMNDPLLERYGVIILDEAHERTLATDILMGVLKEVVRQRSDLKVIVMSATLDAGKFQIYFDNCPLLTIPGRTHPVEIFYTPEPERDYLEAAIRTVIQIHMCEEEEGDLLLFLTGQEEIDEACKRIKREVDDLGPEVGDIKIIPLYSTLPPQQQQRIFEPPPPKKQNGAIGRKVVVSTNIAETSLTIDGVVFVIDPGFAKQKVYNPRIRVESLLVTAISKASAQQRAGRAGRTRPGKCFRLYTEKAYKTEMQDNTYPEILRSNLGSVVLQLKKLGIDDLVHFDFMDPPAPETLMRALELLNYLAALNDDGDLTELGSMMAEFPLDPQLAKMVIASCDYNCSNEVLSITAMLSVPQCFVRPTEAKKAADEAKMRFAHIDGDHLTLLNVYHAFKQNHESVQWCYDNFINYRSLMSADNVRQQLSRIMDRFNLPRRSTDFTSRDYYINIRKALVTGYFMQVAHLERTGHYLTVKDNQVVQLHPSTVLDHKPEWVLYNEFVLTTKNYIRTCTDIKPEWLVKIAPQYYDMSNFPQCEAKRQLDRIIAKLQSKEYSQY
B6: VIL1 (protein, UniProt P09327 2-827, looked up)
Villin-1: TKLSAQVKGSLNITTPGLQIWRIEAMQMVPVPSSTFGSFFDGDCYIILAIHKTASSLSYDIHYWIGQDSSLDEQGAAAIYTTQMDDFLKGRAVQHREVQGNESEAFRGYFKQGLVIRKGGVASGMKHVETNSYDVQRLLHVKGKRNVVAGEVEMSWKSFNRGDVFLLDLGKLIIQWNGPESTRMERLRGMTLAKEIRDQERGGRTYVGVVDGENELASPKLMEVMNHVLGKRRELKAAVPDTVVEPALKAALKLYHVSDSEGNLVVREVATRPLTQDLLSHEDCYILDQGGLKIYVWKGKKANEQEKKGAMSHALNFIKAKQYPPSTQVEVQNDGAESAVFQQLFQKWTASNRTSGLGKTHTVGSVAKVEQVKFDATSMHVKPQVAAQQKMVDDGSGEVQVWRIENLELVPVDSKWLGHFYGGDCYLLLYTYLIGEKQHYLLYVWQGSQASQDEITASAYQAVILDQKYNGEPVQIRVPMGKEPPHLMSIFKGRMVVYQGGTSRTNNLETGPSTRLFQVQGTGANNTKAFEVPARANFLNSNDVFVLKTQSCCYLWCGKGCSGDEREMAKMVADTISRTEKQVVVEGQEPANFWMALGGKAPYANTKRLQEENLVITPRLFECSNKTGRFLATEIPDFNQDDLEEDDVFLLDVWDQVFFWIGKHANEEEKKAAATTAQEYLKTHPSGRDPETPIIVVKQGHEPPTFTGWFLAWDPFKWSNTKSYEDLKAELGNSRDWSQITAEVTSPKVDVFNANSNLSSGPLPIFPLEQLVNKPVEELPEGVDPSRKEEHLSIEDFTQAFGMTPAAFSALPRWKQQNLKKEKGLF

Tested on: HCoV-OC43 gRNA and sgRNA
Format: binding
Details: for target (unweighted spectral count, OC43 Probe II): OC43 Probe II capture on infected cells; for background (unweighted spectral count, no-probe control): no-probe control on infected cells

Molecule | target (unweighted spectral count, OC43 Probe II) (type n_48_v, 48 hpi) | background (unweighted spectral count, no-probe control) (type n_48_v, 48 hpi) | also measured
B1 | – | – | target (unweighted spectral count) (OC43 Probe II, 12 hpi (type n_12_v), infected cells, tested against no-probe control): 11; target (unweighted spectral count, OC43 Probe II) (type n_36_v, 36 hpi): 11; background (unweighted spectral count, no-probe control) (type n_36_v, 36 hpi): 4
B2 | 5 | 1 | –
B3 | 12 | 3 | –
B4 | – | – | target (unweighted spectral count, OC43 Probe II capture) (36 hpi, type n_36_v, tested against no-probe control, FDR<10%): 4
B5 | 13 | 3 | –
B6 | 5 | 1 | –
